Patent US20240391991A1, “MODULATION OF WNT SIGNALLING IN PULMONARY DISORDERS” (Surrozen Operating, Inc., priority 2021, published 2024)
Entries after “also recorded” stand apart in the source; their conditions may differ.

B1: RSPO1: R-spondin 1, of a family of ligands that amplify Wnt signals (protein, UniProt Q2MKA7 21-263, looked up)
R-spondin-1: SRGIKGKRQRRISAEGSQACAKGCELCSEVNGCLKCSPKLFILLERNDIRQVGVCLPSCPPGYFDARNPDMNKCIKCKIEHCEACFSHNFCTKCKEGLYLHKGRCYPACPEGSSAANGTMECSSPAQCEMSEWSPWGPCSKKQQLCGFRRGSEERTRRVLHAPVGDHAACSDTKETRRCTVRRVPCPEGQKRRKGGQGRRENANRNLARKESKEAGAGSRRRKGQQQQQQQGTVGPLTSAGPA
B2: SWAP6: FZD1,2,7-specific Wnt agonist; anti-FZD antibody with LRP6 VHH on light chain N-terminus; SEQ ID NO: 12 and 11 (protein)
chain 1: QVQLQQWGAGLLKPSETLSLTCAVSGASFSGHYWTWIRQPPGKGLEWIGEIDHTGSTNYEPSLRSRVTISVDTSKNQFSLNLKSVTAADTAVYYCARGGQGGYDWGHYHGLDVWGQGTTVTVSSASTKGPSVFPLAPSSKSTSGGTAALGCLVKDYFPEPVTVSWNSGALTSGVHTFPAVLQSSGLYSLSSVVTVPSSSLGTQTYICNVNHKPSNTKVDKKVEPKSCDKTHTCPPCPAPEAAGGPSVFLFPPKPKDTLMISRTPEVTCVVVDVSHEDPEVKFNWYVDGVEVHNAKTKPREEQYNSTYRVVSVLTVLHQDWLNGKEYKCKVSNKALGAPIEKTISKAKGQPREPQVYTLPPSREEMTKNQVSLTCLVKGFYPSDIAVEWESNGQPENNYKTTPPVLDSDGSFFLYSKLTVDKSRWQQGNVFSCSVMHEALHNHYTQKSLSLSPGK
chain 2: DVQLVESGGGLVQAGGSLRLACAGSGRIFAIYDIAWYRHPPGNQRELVAMIRPVVTEIDYADSVKGRFTISRNNAMKTVYLQMNNLKPEDTAVYYCNAKRPWGSRDEYWGQGTQVTVSSGSGSGSYVLTQPPSVSVSPGQTASITCSGDKVGHKYASWYQQKPGQSPVLVIYEDSQRPSGIPVRFSGSNSGNTATLTISGTQAMDEADYYCQAWDSSTDVVFGGGTKLTVLGQPKAAPSVTLFPPSSEELQANKATLVCLISDFYPGAVTVAWKADSSPVKAGVETTTPSKQSNNKYAASSYLSLTPEQWKSHRSYSCQVTHEGSTVEKTVAPTECS
B3: SWAP4: FZD4-mono-specific Wnt agonist; anti-FZD antibody with LRP6 binder; heavy/light chains SEQ ID NO: 9 and 10 (antibody)
heavy: EVQLVESGGGLVQPGGSLRLSCAASGFTFTSYYISWVRQAPGKGLEWVAEISPYSGSTYYADSVKGRFTISADTSKNTAYLQMNSLRAEDTAVYYCALRARPPIRLHPRGSVMDYWGQGTLVTVSSGGGGSGGGGSGGGGSEVQLVESGGGLVQPGGSLRLSCAASGFNISYYYIHWVRQAPGKGLEWLASIYPSSGYTYYADSVKGRFTISADTSKNTAYLQMNSLRAEDTAVYYCARSSFYWAMDYWGQGTLVTVSSASTKGPSVFPLAPSSKSTSGGTAALGCLVKDYFPEPVTVSWNSGALTSGVHTFPAVLQSSGLYSLSSVVTVPSSSLGTQTYICNVNHKPSNTKVDKKVEPKSCDKTHTCPPCPAPEAAGGPSVFLFPPKPKDTLMISRTPEVTCVVVDVSHEDPEVKFNWYVDGVEVHNAKTKPREEQYNSTYRVVSVLTVLHQDWLNGKEYKCKVSNKALGAPIEKTISKAKGQPREPQVYTLPPSREEMTKNQVSLTCLVKGFYPSDIAVEWESNGQPENNYKTTPPVLDSDGSFFLYSKLTVDKSRWQQGNVFSCSVMHEALHNHYTQKSLSLSPGK
light: DIQMTQSPSSLSASVGDRVTITCRASQDVSTAVAWYQQKPGKAPKLLIYSASFLYSGVPSRFSGSGSGTDFTLTISSLQPEDFATYYCQQSYTTPPTFGQGTKVEIKGGGGSGGGGSGGGGSDIQMTQSPSSLSASVGDRVTITCRASQSVSSAVAWYQQKPGKAPKLLIYSASSLYSGVPSRFSGSRSGTDFTLTISSLQPEDFATYYCQQSYAAYLFTFGQGTKVEIKRTVAAPSVFIFPPSDEQLKSGTASVVCLLNNFYPREAKVQWKVDNALQSGNSQESVTEQDSKDSTYSLSSTLTLSKADYEKHKVYACEVTHQGLSSPVTKSFNRGEC
B4: RSPO2: the Wnt signaling enhancer RSPO2 (R-spondin 2) (protein, UniProt Q6UXX9 22-243, looked up)
R-spondin-2: QGNRWRRSKRASYVSNPICKGCLSCSKDNGCSRCQQKLFFFLRREGMRQYGECLHSCPSGYYGHRAPDMNRCARCRIENCDSCFSKDFCTKCKVGFYLHRGRCFDECPDGFAPLEETMECVEGCEVGHWSEWGTCSRNNRTCGFKWGLETRTRQIVKKPVKDTILCPTIAESRRCKMTMRHCPGGKRTPKAKEKRNKKKKRKLIERAQEQHSVFLATDRANQ
B5: SWAP5: FZD-1,2,5,7,8-specific Wnt agonist; anti-FZD antibody with LRP6 VHH on light chain N-terminus; SEQ ID NO: 1 and 2 (protein)
chain 1: EVQLVQSGAEVKKPGASVKVSCKASGYTFTSYGISWVRQAPGQGLEWMGWISAYNGNTNYAQKLQGRVTMTTDTSTSTAYMELRSLRSDDTAVYYCASSKEKATYYYGMDVWGQGTTVTVSSASTKGPSVFPLAPSSKSTSGGTAALGCLVKDYFPEPVTVSWNSGALTSGVHTFPAVLQSSGLYSLSSVVTVPSSSLGTQTYICNVNHKPSNTKVDKKVEPKSCDKTHTCPPCPAPEAAGGPSVFLFPPKPKDTLMISRTPEVTCVVVDVSHEDPEVKFNWYVDGVEVHNAKTKPREEQYNSTYRVVSVLTVLHQDWLNGKEYKCKVSNKALGAPIEKTISKAKGQPREPQVYTLPPSREEMTKNQVSLTCLVKGFYPSDIAVEWESNGQPENNYKTTPPVLDSDGSFFLYSKLTVDKSRWQQGNVFSCSVMHEALHNHYTQKSLSLSPGK
chain 2: DVQLVESGGGLVQAGGSLRLACAGSGRIFAIYDIAWYRHPPGNQRELVAMIRPVVTEIDYADSVKGRFTISRNNAMKTVYLQMNNLKPEDTAVYYCNAKRPWGSRDEYWGQGTQVTVSSGSGSGQAVVLQEPSLSVSPGGTVTLTCGLSSGSVSTNYYPSWYQQTPGQAPRTLIYYTNTRSSDVPERFSGSIVGNKAALTITGAQPDDESVYFCLLYLGRGIWVFGGGTKLTVLGQPKAAPSVTLFPPSSEELQANKATLVCLISDFYPGAVTVAWKADSSPVKAGVETTTPSKQSNNKYAASSYLSLTPEQWKSHRSYSCQVTHEGSTVEKTVAPTECS

Columns and labels:
[1] = tested on: human AT2 cell organoid; assay: Human AT2 cell organoid growth, CellTiter Glo assay; format: cell-based; settings: for human AT2 culture growth: RSPO alone, Wnt signaling inhibitor C59 present
Description: For ex vivo studies, 3D organoid cultures (see, e.g., Zacharias, W. et al. (2018) Nature 555:251-257 and Barkauskas et al. (2017) Development 144:986-997) were constructed by combining primary human lung fibroblasts from healthy, pulmonary fibrosis, or COPD patients with alveolar epithelial cells (AT2 and AEP cells) from patients. Organoids were cultured in SAGM medium with growth factor free Matrigel. The Wnt antagonist and agonist were added in a sequential or concurrent manner to determine the effect on the fibroblast/myofibroblast proliferation, matrix production, alveolar epithelial cell proliferation and AT1/AT2 cell fate trans-differentiation. Alveolar organoids can also be cultured directly from human distal lung cells including purified AT2 cells (Kobayashi et al., (2020) supra).
In all of the AT2 cell organoid experiments, the Wnt signaling inhibitor, C59, was used to prevent endogenous secretion of Wnt ligands. […] AT2 cell organoid growth was assessed with the CellTiter Glo assay.

[2] = tested on: acute bleomycin mouse model; assay: Bleomycin-induced acute lung injury (fibrosis) mouse model; format: in vivo; settings: for fibrosis score (Modified Ashcroft) / percentage of lung area affected by fibrosis: agent alone, dosed four times between week 1 and week 3, vs anti-GFP; for fibrosis score (Modified Ashcroft): FIGS. 10-12; for percentage of lung area affected by fibrosis: FIGS. 10-11
Text: The acute lung injury (single bleomycin treatment; FIG. 1) and chronic intermittent/low dose bleomycin mouse models (FIG. 2) were used to determine the therapeutic effects of Wnt antagonist and agonist (administered concurrently or sequentially or individually) in combination with or without anti-fibrotic drugs (e.g., pirfenidone and nintedanib) to assess effects on anti-fibrotic and improved respiratory functions (see, e.g., Degryse, A. et al. (2010) Am J Physiol Lung Cell Mol Physiol. 299:442-52). Improvement of fibrosis was observed upon treatment with a WNT agonist, SWAP5 (see, e.g., FIG. 7, FIG. 10). Specifically, bleomycin was administered intratracheally to the mice at day 0, and animals were treated twice weekly with an agonist approach—combination of SWAP5 (FZD1,2,5,7,8 multi-FZD-specific SWAP) and RSPO2 (combo)—for two weeks starting at day 7 until termination at day 21. […] Improvement of fibrosis was also observed upon treatment with a Wnt agonist or the Wnt signaling enhancer RSPO2 alone (FIG. 10).

[3] = tested on: human AT2 cell organoid; assay: Human AT2 organoid size (diameter, microscopy); format: cell-based; settings: in the absence of RSPO; C59 present; FIG. 6
[4] = combination of SWAP5 and RSPO2 (combo), twice weekly day 7 to day 21, FIG. 7

Row | Molecule | human AT2 culture growth [1] | fibrosis score (Modified Ashcroft) [2] | percentage of lung area affected by fibrosis [2] | other results
1 | B1 | did not enhance human AT2 culture growth |  |  | 
2 | B2 |  | caused a trend of reduction in the extent of fibrosis |  | 
3 | B3 |  |  |  | self-renewal and expansion of human AT2 cells ([1]; summary of organoid results): promotes the self-renewal and expansion of human AT2 cells; human AT2 cell organoid growth as organoid size (diameter) [3]: expand AT2 organoids
4 | B4 | did not enhance human AT2 culture growth | reduced the fibrosis score; also recorded: lower the severity of fibrosis | reduced the fibrosis score and percentage of lung area affected; also recorded: reduce the area of the lung that is fibrotic | 
5 | B5 |  | reduced the fibrosis score; also recorded: lower the severity of fibrosis | reduced the fibrosis score and percentage of lung area affected; also recorded: reduce the area of the lung that is fibrotic | area (percent) of lung affected by fibrosis [2, 4]: reduction in the degree of fibrosis severity and the area of the lung affected by fibrosis; also recorded: reduce the area of the lung that is fibrotic; fibrosis severity (fibrosis score) [2, 4]: reduction in the degree of fibrosis severity; also recorded: lower the severity of fibrosis
